Columns and labels:
NR2B = target: T1, NR2B (Homo sapiens, UniProt Q13224); experiment: Ion channel panel (IonWorks Barracuda): NR2B; assay type: cell-based; details: 100% = no change, <100% = inhibition
T1 construct: host or cells: HEK293 or CHO
Method in brief: (§1)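 Transfected HEK293 or CHO cells were exposed for at least 5 min to peptides at 200 nM and 20 μM final, tested in duplicate, in HEPES-buffered physiological saline. Activation was taken as peptide-plus-agonist current over control current ×100, and inhibition as 1 minus that ratio ×100. Each channel's control was its own reference compound.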

α4β2 = target: T2, α4β2 (Homo sapiens, UniProt P17787+P43681); experiment: Ion channel panel (IonWorks Barracuda): α4β2; assay type: cell-based; details: 100% = no change, <100% = inhibition
T2 construct: host or cells: HEK293 or CHO
Method in brief: as §1

GABA = experiment: Ion channel panel (IonWorks Barracuda): GABA; assay type: cell-based; details: 100% = no change, <100% = inhibition
Method in brief: as §1

Nav1.5 = Nav1.5 (Homo sapiens, UniProt Q14524); experiment: in vitro; details: 100% = no change; for Activity of Nav1.5 with peptide, expressed as a percentage of the reference compound: peptide at 0.2 μM; for Activity of Nav1.5 with peptide (percentage of the reference compound): peptide at 20 μM
Sequence of Nav1.5 (Q14524 whole entry): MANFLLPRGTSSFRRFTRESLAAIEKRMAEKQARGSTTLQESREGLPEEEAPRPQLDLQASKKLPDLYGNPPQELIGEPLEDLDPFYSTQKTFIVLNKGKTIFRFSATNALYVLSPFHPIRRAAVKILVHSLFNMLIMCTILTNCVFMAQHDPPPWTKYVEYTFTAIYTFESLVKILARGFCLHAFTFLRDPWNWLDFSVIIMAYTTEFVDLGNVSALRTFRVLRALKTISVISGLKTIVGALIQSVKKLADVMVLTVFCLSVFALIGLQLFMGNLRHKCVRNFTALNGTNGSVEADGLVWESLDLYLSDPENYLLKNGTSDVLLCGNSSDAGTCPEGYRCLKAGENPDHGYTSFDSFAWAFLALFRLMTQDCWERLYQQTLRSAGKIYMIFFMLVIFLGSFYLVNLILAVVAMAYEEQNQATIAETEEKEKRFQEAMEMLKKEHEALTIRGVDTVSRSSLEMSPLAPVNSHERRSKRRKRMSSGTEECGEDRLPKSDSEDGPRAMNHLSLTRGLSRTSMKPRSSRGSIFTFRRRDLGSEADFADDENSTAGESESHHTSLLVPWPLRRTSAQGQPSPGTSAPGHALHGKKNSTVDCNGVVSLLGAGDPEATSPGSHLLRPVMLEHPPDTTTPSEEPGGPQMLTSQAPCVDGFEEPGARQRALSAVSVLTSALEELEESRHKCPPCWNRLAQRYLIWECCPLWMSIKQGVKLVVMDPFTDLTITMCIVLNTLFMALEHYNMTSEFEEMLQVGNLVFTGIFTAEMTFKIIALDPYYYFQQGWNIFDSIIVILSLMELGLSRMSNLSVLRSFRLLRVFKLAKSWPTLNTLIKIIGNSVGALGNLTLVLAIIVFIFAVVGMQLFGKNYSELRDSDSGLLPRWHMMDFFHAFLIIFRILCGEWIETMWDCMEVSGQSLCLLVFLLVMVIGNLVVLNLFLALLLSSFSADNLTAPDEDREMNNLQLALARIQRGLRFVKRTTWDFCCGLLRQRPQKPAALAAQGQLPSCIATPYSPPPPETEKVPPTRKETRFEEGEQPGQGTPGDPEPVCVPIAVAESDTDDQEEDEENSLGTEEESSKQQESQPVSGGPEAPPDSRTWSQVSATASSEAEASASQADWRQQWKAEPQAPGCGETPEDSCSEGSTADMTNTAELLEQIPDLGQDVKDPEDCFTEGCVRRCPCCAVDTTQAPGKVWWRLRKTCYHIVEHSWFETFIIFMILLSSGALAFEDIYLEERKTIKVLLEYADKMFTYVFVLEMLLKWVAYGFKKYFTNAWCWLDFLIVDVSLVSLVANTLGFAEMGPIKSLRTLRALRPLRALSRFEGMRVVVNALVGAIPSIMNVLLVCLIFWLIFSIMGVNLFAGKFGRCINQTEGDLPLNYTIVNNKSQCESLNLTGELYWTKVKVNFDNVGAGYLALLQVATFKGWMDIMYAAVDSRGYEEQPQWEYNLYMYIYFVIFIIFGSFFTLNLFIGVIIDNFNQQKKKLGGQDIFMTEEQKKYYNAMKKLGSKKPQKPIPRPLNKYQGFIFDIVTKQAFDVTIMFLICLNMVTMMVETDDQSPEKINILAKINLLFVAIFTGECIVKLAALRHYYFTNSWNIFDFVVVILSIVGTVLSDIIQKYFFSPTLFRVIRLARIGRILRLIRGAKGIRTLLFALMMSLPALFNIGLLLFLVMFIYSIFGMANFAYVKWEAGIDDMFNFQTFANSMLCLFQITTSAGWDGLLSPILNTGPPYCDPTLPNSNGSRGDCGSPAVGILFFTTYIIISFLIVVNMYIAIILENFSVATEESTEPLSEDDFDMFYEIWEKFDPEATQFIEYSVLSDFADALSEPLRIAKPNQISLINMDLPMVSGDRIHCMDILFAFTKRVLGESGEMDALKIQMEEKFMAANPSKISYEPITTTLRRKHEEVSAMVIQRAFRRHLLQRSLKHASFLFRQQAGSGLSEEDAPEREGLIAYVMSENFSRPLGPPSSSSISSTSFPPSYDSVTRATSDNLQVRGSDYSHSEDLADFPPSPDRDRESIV
Method in brief: as §1

hERG = hERG (Homo sapiens, UniProt Q12809); experiment: in vitro; details: 100% = no change, <100% = inhibition
Method in brief: as §1

TRPV1 = target: T3, TRPV1 (Homo sapiens, UniProt Q8NER1); experiment: Ion channel panel (IonWorks Barracuda): TRPV1; assay type: cell-based; details: 100% = no change, <100% = inhibition
T3 construct: host or cells: HEK293 or CHO
Method in brief: as §1

NR2A = target: T4, NR2A (Homo sapiens, UniProt Q12879); experiment: Ion channel panel (IonWorks Barracuda): NR2A; assay type: cell-based; details: 100% = no change, <100% = inhibition
T4 construct: host or cells: HEK293 or CHO
Method in brief: as §1

α3β4 = target: T5, α3β4 (Homo sapiens, UniProt P30926+P32297); experiment: Ion channel panel (IonWorks Barracuda): α3β4; assay type: cell-based; details: 100% = no change, <100% = inhibition
T5 construct: host or cells: HEK293 or CHO
Method in brief: as §1

5HT3a = target: T6, 5HT3a (Homo sapiens, UniProt P46098); experiment: Ion channel panel (IonWorks Barracuda): 5HT3a; assay type: cell-based
T6 construct: host or cells: HEK293 or CHO
T6 sequence (P46098 whole entry, looked up): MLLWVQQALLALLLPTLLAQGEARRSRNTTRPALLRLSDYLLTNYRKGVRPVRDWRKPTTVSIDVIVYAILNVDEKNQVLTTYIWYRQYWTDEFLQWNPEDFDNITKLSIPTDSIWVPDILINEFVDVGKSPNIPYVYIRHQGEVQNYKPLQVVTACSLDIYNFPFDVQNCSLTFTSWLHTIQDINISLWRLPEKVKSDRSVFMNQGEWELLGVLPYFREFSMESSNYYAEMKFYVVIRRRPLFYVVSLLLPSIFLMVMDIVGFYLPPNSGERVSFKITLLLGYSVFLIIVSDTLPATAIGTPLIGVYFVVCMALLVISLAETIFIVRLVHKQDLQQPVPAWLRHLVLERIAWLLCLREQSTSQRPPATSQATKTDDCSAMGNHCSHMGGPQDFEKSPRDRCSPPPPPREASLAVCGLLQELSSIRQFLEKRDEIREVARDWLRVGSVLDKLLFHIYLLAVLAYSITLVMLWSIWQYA
Method in brief: as §1

Nav1.7 = target: T7, Nav1.7 (Homo sapiens, UniProt Q15858); experiment: cell-based; assay type: cell-based; details: 100% = no change; for Activity of Nav1.7 with peptide, expressed as a percentage of the reference compound: peptide at 0.2 μM; for Activity of Nav1.7 with peptide (percentage of the reference compound): peptide at 20 μM
T7 construct: host or cells: HEK293 or CHO
T7 sequence (Q15858 whole entry): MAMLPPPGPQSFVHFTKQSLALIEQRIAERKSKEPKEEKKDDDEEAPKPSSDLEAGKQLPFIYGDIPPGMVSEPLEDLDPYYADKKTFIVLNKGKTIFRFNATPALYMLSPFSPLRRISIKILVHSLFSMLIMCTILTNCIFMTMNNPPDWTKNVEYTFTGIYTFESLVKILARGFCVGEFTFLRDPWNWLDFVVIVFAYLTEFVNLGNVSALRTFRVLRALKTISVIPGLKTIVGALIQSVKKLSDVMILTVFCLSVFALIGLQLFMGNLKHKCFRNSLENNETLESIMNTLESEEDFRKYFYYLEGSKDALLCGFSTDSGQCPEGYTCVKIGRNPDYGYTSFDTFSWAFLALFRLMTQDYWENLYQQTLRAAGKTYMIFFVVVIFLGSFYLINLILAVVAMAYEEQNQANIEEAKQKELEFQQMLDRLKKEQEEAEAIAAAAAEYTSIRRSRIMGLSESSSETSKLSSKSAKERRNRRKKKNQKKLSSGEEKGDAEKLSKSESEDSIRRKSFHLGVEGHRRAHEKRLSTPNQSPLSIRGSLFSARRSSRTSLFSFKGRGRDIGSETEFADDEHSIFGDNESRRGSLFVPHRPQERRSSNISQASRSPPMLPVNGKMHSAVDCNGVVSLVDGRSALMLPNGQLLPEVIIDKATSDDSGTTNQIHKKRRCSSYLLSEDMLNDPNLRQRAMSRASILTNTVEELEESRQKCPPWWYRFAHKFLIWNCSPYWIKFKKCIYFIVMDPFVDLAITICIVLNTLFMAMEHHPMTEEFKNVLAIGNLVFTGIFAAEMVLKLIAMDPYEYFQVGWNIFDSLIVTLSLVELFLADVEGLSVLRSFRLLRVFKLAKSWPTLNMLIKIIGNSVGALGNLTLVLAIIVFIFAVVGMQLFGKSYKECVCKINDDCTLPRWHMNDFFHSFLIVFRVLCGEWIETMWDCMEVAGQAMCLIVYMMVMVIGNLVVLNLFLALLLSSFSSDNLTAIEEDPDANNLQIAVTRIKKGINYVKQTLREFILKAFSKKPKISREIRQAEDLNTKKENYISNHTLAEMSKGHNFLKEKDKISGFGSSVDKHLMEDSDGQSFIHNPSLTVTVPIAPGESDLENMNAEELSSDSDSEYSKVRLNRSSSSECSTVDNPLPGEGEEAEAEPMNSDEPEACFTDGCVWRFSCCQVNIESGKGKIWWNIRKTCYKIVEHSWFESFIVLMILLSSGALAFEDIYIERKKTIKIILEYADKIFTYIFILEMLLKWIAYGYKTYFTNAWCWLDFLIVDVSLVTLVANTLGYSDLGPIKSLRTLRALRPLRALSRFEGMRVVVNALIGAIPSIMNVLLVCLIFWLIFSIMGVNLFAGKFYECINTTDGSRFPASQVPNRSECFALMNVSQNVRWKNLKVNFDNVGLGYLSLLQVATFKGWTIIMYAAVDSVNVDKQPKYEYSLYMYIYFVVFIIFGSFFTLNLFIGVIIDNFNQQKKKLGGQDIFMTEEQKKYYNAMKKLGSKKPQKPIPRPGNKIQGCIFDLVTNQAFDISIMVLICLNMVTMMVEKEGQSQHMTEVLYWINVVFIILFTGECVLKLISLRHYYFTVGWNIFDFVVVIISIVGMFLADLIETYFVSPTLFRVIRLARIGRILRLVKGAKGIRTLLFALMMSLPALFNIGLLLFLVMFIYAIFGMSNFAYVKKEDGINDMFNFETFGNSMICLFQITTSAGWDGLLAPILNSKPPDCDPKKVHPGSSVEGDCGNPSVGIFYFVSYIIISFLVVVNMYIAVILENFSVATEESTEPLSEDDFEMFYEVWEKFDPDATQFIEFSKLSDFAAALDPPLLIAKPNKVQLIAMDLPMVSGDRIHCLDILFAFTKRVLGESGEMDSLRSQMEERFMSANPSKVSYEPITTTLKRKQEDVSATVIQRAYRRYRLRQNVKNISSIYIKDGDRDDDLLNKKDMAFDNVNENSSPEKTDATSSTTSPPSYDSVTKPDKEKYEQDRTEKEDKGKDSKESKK

Kir2.1 = target: T8, Kir2.1 (Homo sapiens, UniProt P63252); experiment: Ion channel panel (IonWorks Barracuda): Kir2.1; assay type: cell-based; details: 100% = no change, <100% = inhibition
T8 construct: host or cells: HEK293 or CHO
Method in brief: as §1

Kv1.1 = target: T9, Kv1.1 (Homo sapiens, UniProt Q09470); experiment: cell-based; assay type: cell-based; details: 100% = no change, <100% = inhibition
T9 construct: host or cells: HEK293 or CHO
T9 sequence (Q09470 whole entry): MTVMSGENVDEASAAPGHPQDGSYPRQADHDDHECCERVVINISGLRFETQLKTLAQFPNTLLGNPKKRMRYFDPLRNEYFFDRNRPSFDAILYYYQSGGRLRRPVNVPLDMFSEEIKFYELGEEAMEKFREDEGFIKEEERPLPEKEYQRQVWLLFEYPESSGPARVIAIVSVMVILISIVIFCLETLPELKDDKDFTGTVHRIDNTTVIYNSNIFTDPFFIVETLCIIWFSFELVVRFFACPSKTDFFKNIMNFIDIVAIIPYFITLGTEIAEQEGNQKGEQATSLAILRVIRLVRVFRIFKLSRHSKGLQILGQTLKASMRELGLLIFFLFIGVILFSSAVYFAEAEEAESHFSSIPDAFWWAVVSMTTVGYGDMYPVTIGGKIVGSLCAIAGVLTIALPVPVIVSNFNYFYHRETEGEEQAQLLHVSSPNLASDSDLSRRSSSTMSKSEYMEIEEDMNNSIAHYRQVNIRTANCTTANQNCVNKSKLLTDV
Method in brief: as §1

Kv1.2 = target: T10, Kv1.2 (Homo sapiens, UniProt P16389); experiment: cell-based; assay type: cell-based; details: 100% = no change, <100% = inhibition
T10 construct: host or cells: HEK293 or CHO
T10 sequence (P16389 whole entry): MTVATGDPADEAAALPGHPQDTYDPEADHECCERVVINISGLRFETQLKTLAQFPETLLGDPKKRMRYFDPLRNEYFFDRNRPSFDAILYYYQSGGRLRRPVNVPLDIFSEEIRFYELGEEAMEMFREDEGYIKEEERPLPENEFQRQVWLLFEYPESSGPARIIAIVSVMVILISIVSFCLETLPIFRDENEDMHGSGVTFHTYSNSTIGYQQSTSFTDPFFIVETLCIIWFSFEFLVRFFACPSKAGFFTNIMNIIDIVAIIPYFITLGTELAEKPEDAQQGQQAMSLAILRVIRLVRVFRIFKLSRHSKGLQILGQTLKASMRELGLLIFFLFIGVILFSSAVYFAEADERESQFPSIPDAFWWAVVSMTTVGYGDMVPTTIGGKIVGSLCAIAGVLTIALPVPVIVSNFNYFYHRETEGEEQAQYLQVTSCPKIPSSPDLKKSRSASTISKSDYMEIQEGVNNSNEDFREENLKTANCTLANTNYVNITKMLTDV
Method in brief: as §1

Kv1.3 = target: T11, Kv1.3 (Homo sapiens, UniProt P22001); experiment: cell-based; assay type: cell-based; details: 100% = no change, <100% = inhibition
T11 construct: host or cells: HEK293 or CHO
Method in brief: as §1

Kv2.1 = target: T12, Kv2.1 (Homo sapiens, UniProt Q14721); experiment: cell-based; details: 100% = no change, <100% = inhibition
T12 construct: host or cells: HEK293 or CHO
Method in brief: as §1

Cav2.1 = target: T13, Cav2.1 (Homo sapiens, UniProt O00555); experiment: cell-based; details: 100% = no change, <100% = inhibition
T13 construct: host or cells: HEK293 or CHO
Method in brief: as §1

Cav2.2 = target: T14, Cav2.2 (Homo sapiens, UniProt Q00975); experiment: cell-based; details: 100% = no change, <100% = inhibition
T14 construct: host or cells: HEK293 or CHO
Method in brief: as §1

TRPA1 = target: T15, TRPA1 (Homo sapiens, UniProt O75762); experiment: Ion channel panel (IonWorks Barracuda): TRPA1; assay type: cell-based; details: 100% = no change, <100% = inhibition
T15 construct: host or cells: HEK293 or CHO
Method in brief: as §1

[1] = first of two Nav1.5 columns (probably TP1)
[2] = second of two Nav1.5 columns (probably TP2)
[3] = first of two Nav1.7 columns (probably TP1)
[4] = second of two Nav1.7 columns (probably TP2)

Substance: 34 (GGYSRCQLQGFNCVVRSYGLPTIPCCRGLTCRSYFPGSTYGRCQRY) [compound 34]
- Activity of NR2B with peptide, expressed as a percentage of the reference compound (NR2B; peptide at 0.2 μM): 127%
- Activity of NR2B with peptide (percentage of the reference compound) (NR2B; peptide at 20 μM): 66%
- Activity of a4b2 with peptide, expressed as a percentage of the reference compound (α4β2; peptide at 0.2 μM): 81%
- Activity of a4b2 with peptide (percentage of the reference compound) (α4β2; peptide at 20 μM): 51%
- Activity of GABA with peptide, expressed as a percentage of the reference compound (GABA; peptide at 0.2 μM): 107%
- Activity of GABA with peptide (percentage of the reference compound) (GABA; peptide at 20 μM): 117%
- Activity of Nav1.5 with peptide, expressed as a percentage of the reference compound (Nav1.5; [1]): 111%
- Activity of Nav1.5 with peptide, expressed as a percentage of the reference compound (Nav1.5; [2]): 113%
- Activity of Nav1.5 with peptide (percentage of the reference compound) (Nav1.5; [1]): 101%
- Activity of Nav1.5 with peptide (percentage of the reference compound) (Nav1.5; [2]): 101%
- Activity of hERG with peptide, expressed as a percentage of the reference compound (hERG; peptide at 0.2 μM): 84%
- Activity of hERG with peptide (percentage of the reference compound) (hERG; peptide at 20 μM): 66%
- Activity of TRPV1 with peptide, expressed as a percentage of the reference compound (TRPV1; peptide at 0.2 μM): 110%
- Activity of TRPV1 with peptide (percentage of the reference compound) (TRPV1; peptide at 20 μM): 71%
- Activity of NR2A with peptide, expressed as a percentage of the reference compound (NR2A; peptide at 0.2 μM): 112%
- Activity of NR2A with peptide (percentage of the reference compound) (NR2A; peptide at 20 μM): 77%
- Activity of a3b4 with peptide, expressed as a percentage of the reference compound (α3β4; peptide at 0.2 μM): 103%
- Activity of a3b4 with peptide (percentage of the reference compound) (α3β4; peptide at 20 μM): 97%
- Activity of 5HT3a with peptide (percentage of the reference compound) (5HT3a): 97%
- Activity of 5HT3a with peptide, expressed as a percentage of the reference compound (5HT3a): 114%
- Activity of Nav1.7 with peptide, expressed as a percentage of the reference compound (Nav1.7; [3]): 102%
- Activity of Nav1.7 with peptide, expressed as a percentage of the reference compound (Nav1.7; [4]): 104%
- Activity of Nav1.7 with peptide (percentage of the reference compound) (Nav1.7; [3]): 86%
- Activity of Nav1.7 with peptide (percentage of the reference compound) (Nav1.7; [4]): 80%
- Activity of Kir2.1 with peptide, expressed as a percentage of the reference compound (Kir2.1; peptide at 0.2 μM): 97%
- Activity of Kir2.1 with peptide (percentage of the reference compound) (Kir2.1; peptide at 20 μM): 50%
- Activity of Kv1.1 with peptide, expressed as a percentage of the reference compound (Kv1.1; peptide at 0.2 μM): 109%
- Activity of Kv1.1 with peptide (percentage of the reference compound) (Kv1.1; peptide at 20 μM): 111%
- Activity of Kv1.2 with peptide, expressed as a percentage of the reference compound (Kv1.2; peptide at 0.2 μM): 96%
- Activity of Kv1.2 with peptide (percentage of the reference compound) (Kv1.2; peptide at 20 μM): 51%
- Activity of Kv1.3 with peptide, expressed as a percentage of the reference compound (Kv1.3; peptide at 0.2 μM): 108%
- Activity of Kv1.3 with peptide (percentage of the reference compound) (Kv1.3; peptide at 20 μM): 100%
- Activity of Kv2.1 with peptide, expressed as a percentage of the reference compound (Kv2.1; peptide at 0.2 μM): 98%
- Activity of Kv2.1 with peptide (percentage of the reference compound) (Kv2.1; peptide at 20 μM): 97%
- Activity of Cav2.1 with peptide, expressed as a percentage of the reference compound (Cav2.1; peptide at 0.2 μM): 86%
- Activity of Cav2.1 with peptide (percentage of the reference compound) (Cav2.1; peptide at 20 μM): 111%
- Activity of Cav2.2 with peptide, expressed as a percentage of the reference compound (Cav2.2; peptide at 0.2 μM): 130%
- Activity of Cav2.2 with peptide (percentage of the reference compound) (Cav2.2; peptide at 20 μM): 94%
- Activity of TRPA1 with peptide, expressed as a percentage of the reference compound (TRPA1; peptide at 0.2 μM): 91%
- Activity of TRPA1 with peptide (percentage of the reference compound) (TRPA1; peptide at 20 μM): 97%

Source: patent publication US20200262877A1, “ION CHANNEL-BINDING PEPTIDES AND METHODS OF USE THEREOF” (priority 2017, published 2020)
